The record followed here is the nanobody polyreactivity screen of Harvey et al. (2022).

This data set can be described thus: yeast display, Sf9 membrane polyspecificity reagent, FACS + sequencing; frameworks hold sequencing errors. In a few lines:
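Genes from sorted yeast were amplified by colony PCR, read by MiSeq 2 × 250 sequencing and filtered on CDR length. These cells carried a synthetic nanobody library in Saccharomyces cerevisiae BJ5465 and were sorted by FACS into low and high (top ~1%) gates on anti-HA and streptavidin fluorescence. Polyreactivity is labelled according to the gate of origin.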
With “QVQLVESGGGLVQAGGSLRLSCAASGSIFSYNAMGWYRQAPGKERELVAAISRNGGRTYYADSVKGRFTISRDNAKNTVYLQMNSLKPEDTAVYYCNNAGYRAGTGSYDYWGQGTQVTVSS”, the “polyreactivity (PSR sort gate)” value is “high polyreactivity”.
On to “QVLLVESGVGLVQAGGSLRLSCASSGFTFYRNAMGWYRQAPGKERELVASISRSGGSTYYADSVKGRFTISRDNAKNTVYLQMNSLKPEDTAVYYCAADLWWIYPHKYYYWGQGTQVTVSS”, for which the “polyreactivity (PSR sort gate)” value is reported as “high polyreactivity”.
With “QVQLVESGGGLVQAGGSLRLSCAASGFTFSDYAMGWYRQAPGKERELVAAISTRGSSTYYADSVKGRFTISRDNAKNTVYLQMNSLKPEDTAVYYCNAVGSYSGYYYWGQGTQVTVSS”, the “polyreactivity (PSR sort gate)” value is listed as “high polyreactivity”.
In the case of “QVQLVESGGGLFQAGGSLRLSCAATGRTFDPYAMGWYRQAPGKERELVAVISISDGSTYYADSVKGRFTISRDNAKNTVYLQMHSLKPEDTAVYYCAAYVFYDYWTLEYWGQGTQVTVSS”, the “polyreactivity (PSR sort gate)” value is listed as “high polyreactivity”.
For “QVQLEESGGGLVQAGGSLRLSCAGSGFTFGVYAMGWYRQAPGKERELVAVIRGSGGSTYYADSVKGRFTISRDKAKNTVYLQMNSLKPEDTAGYYCAARRYQYVWSLYNYWGQGTQVTVSS”, the “polyreactivity (PSR sort gate)” value is reported as “high polyreactivity”.
Turning to “QVQLVESGGGLVQAGGSLRLSCAASGSTFVRNAMGWYRQAPGKERELVAGISTGDNTYYADSVKGRFTISRDNAKNTVYLQMNSLKPEDTAVYYCNADVYTEYDYWGQGTQVTVSS”, the “polyreactivity (PSR sort gate)” value is recorded as “low polyreactivity”.
Then “QVQLVESGGGLVQAGGSLRLSCSASGTISGLYAMGWYRQATGKERELVARIRWRGDSTYYADSVKGRFTISRDNAKNTVYLQMNSLNPEDTAVFYCAASAYSGKVNKYNYWGQGTQVTVSS”, with “high polyreactivity”; and “QVQLVESGGGLVQAGGSLRLSCAASGRIFKINAMGWYRQAPGKERELVAAITRSGGTTYYADSVKGRFTISRDNAKNTVYLQMNSLKPEDTAVDYCARAYSLRVVTGDYWGQGTQVTVSS”, with “high polyreactivity”.
Under “QVQLVESVGGLVQAGGSLRLSCAASGSTFVGNAMGWYRQAPGKERELVAAITGGGGSTYYADSVKGRFTISRDNAKNTVYLQMNSLKPEDTAVYYCAREYTYYPRWVGYDAYGEDYWGQGTQVTVSS” stands “low polyreactivity”; under “QVQLVESGGGLVQAGGSLRLSCAASGSTFPIYAMGWYRQAPGKERELVASIRSGGSTYYADSVKGRFTMSRDNAKNTVYLQMNSLKPEDTAVYYCARRDYGVLNKGLGQEGDYWGQGTQVTVSS”, “low polyreactivity”; under “QVQLVESGGGLVQAGGSLRISCAASGFTLSYYAMGWYRQAPGKERELVASISAIGGITYYADSVKGRFTISRDNAKNTVYLQMNSLKPEDTAVYYCARQGRRYRRFDSWGQGTQVTVSS”, “high polyreactivity”.
Then “QVQLVESGGGLVQAGGSLRLSSAASGFTFVGYAMGWSRQAPGKERELVAAITGRGGTTYYADSVKGRFTISRDNAKNTVYLQMNSLKPEDTSVYYCAADTPSFWTEVDSWGQGTQVTLSS”, with “low polyreactivity”; and “QVQLVESGGGLVQPGGSLRLSCAASGRSFFGYPMGWYRQAPGKERELVATISGSGASTYYADSVKGRFTISRDNAKNTVYLQMNSLKPEDTAVYYFAARYVTNRHSRYYYWGQGTQVTVSS”, with “high polyreactivity”; and “QVHLVESGGGLVQAGGSLRLICAASGRIYTFYAMGWYRQAPGKERHLVAAIRGSSVSTYYADSVKGRFTISRDNAKITVYLQMNSLKPEDTAVYYCAADIYLWNSEYYYWGQGTQVTVSS”, with “low polyreactivity”.
Take “QVQLVESGGGLVEAGGSLRLTCEASGSIISYYVMGWYRQAPGKERELVAAISSSGGRTYYADSVKGRFTISRDNSKNTVYLQMNSLKPDDNAVYYCAARDRPSPYYYWGQGTQVNVSS”: the “polyreactivity (PSR sort gate)” value is given as “high polyreactivity”.
For “QVQLVESGGGLVQAGGSLRLSCAASGRIFDVYAMGWYRQAPGKERELVATITGSGGGTYYADSVKGRFTISRDNAKNTVYLQMNSLKPEDSEVYYCASYYYPNYAYYVSNVVYDYWVQGTQVTVSS”, the “polyreactivity (PSR sort gate)” value was “low polyreactivity”.
Then “QVQLVESGGGLFQAGGSLRLSCAASGLTFYIYAMGWYRQAPGKEREFVAAIRRSGGRTYYADSVKGRFTISRDNAKNTVYLQMNSLKPEDTAVYYCNRYTQYRDRSDNHWGQGTQVTVSS”, with “high polyreactivity”; and “QVQLQESGAGLLQAGGCLSCTASGTIFGQGDMGWYRQAPGKERELLATINDGASTYYADSVKGRFTISRDKAKNTVYLKKNSLKPDDTAVDYFAVFTDITNYFGYWGQATQVTVSS”, with “low polyreactivity”; and “QVQLVESGGGLVQAGGSLSLSCAASGNNLYGNAMGWYRPAPGKERELVAGITSGGSTNYADSVKGRFTISRDNAKNTVYLQMNSLKREDTAVYYCNATSSGSIFGYDYWGQGTQVTVSS”, with “low polyreactivity”.
Under “QVQLVESGGRLVQAGGSLRLICAASGITYYEYAMGWYRQAPGKERELVAAITSGGTTNYADSVNGRFTISLDNAKNTVYLQMNSLKPEDTAVYFCAADLIGYSYPDEYYGKGEYDYWGQGTQVTVSS” stands “low polyreactivity”.
“QVQLVESGGGLVQAGGSLRLSCAASGSIFIGYAMGWYRQAHGKERELVAAITSGGSTYADSVKGRFTISRDNAKNPVYLQMNSLKPEDSAVYYCAARFFLVTLDYWGQGTQVTVSS”: the “polyreactivity (PSR sort gate)” value was “low polyreactivity”.
Regarding “QVQLVESGGGLVQAGGSLRLSCAASGSIFYPYAMGWYRQAPGKERELVAAISDSGDITYYADSVKGRFTISRDNAKNTVYLQMNSLKPEDTAVYYCAADRPWGYDYWGQGTQVSVSS”, the “polyreactivity (PSR sort gate)” value is reported as “low polyreactivity”.
Under “QVQLVESGGGLVQAGGSLRLSCAPSGFIFDYNAMGWYRQAPGKERELVAAISISGGGTYYADSVKGRFTISRDNAKNTVYLQMNSLKPEDTAVYYCATAGRYDAYDYWGQGTQVTVSS” stands “low polyreactivity”.
As to “QDQLVESGGGLVQAGGSLRLSCAASGRTFTRYAMGWYRPAPGKERELVAAISKRGGSTYYADSVKGRFTISRDNAKNTVYLQMNSLKPEDTAVYYCAADQPYHDSEYWGQGTQVTVSS”, the “polyreactivity (PSR sort gate)” value is listed as “high polyreactivity”.
Then “QVQLVESGGGLVHAGGSLRLSCAASGLTFKRYAMGWSRQAPGKERELVASITGNGGSTYYADSVKGRFTISRDNAKNTVYSQMNSLKPEDTAVYYCNARRYVRTSQQPLYDYWGQGTQVTVSS”, with “high polyreactivity”; and “QVQLVESGGGIVQAGGSLRLSCAASGLIFSRYTMGWYRQAPAKEMELVAAISGRGTSTYYAYSVKGRFTISRDNAKNTVYLLMNSLKPEDTAVYYCATSKSYSAFDYWGQGTQVTVSS”, with “high polyreactivity”.
For the sequence “QVQLVESGGGLVQAGGSLRLSCAASGSTFGRYVMGRYRPAPGKERELVAAISGSGGSTYYADSVKGRFTISRDNAKNTVYLQMNSLKPEDTAVYYCAARVAHYEYYWGQGTQVTVSS”, the “polyreactivity (PSR sort gate)” value was “high polyreactivity”.
On to “QVQLVESGGGLVQEGGSLRLICAASGLIFPRYSMGWYRQAPGKERELVAAITRGGSTYYADSVKGRFTISRDNAMNTVYLQMNSLKQEDTAVSYCNAELPVHWSWYVYWGQGTQVTVSS”, for which the “polyreactivity (PSR sort gate)” value is “low polyreactivity”.
Under “QVQLVESGGGLVQAGGSLRLSCAASGRTFNIYDMGGYIPAPGTERELVAAITGRGTGTYYADSVKGRFTISRDNAKNTVYLQMNSLKPEDTAVYFCAAVRRWYYPALSEHDYWGQGTQVTVSS” stands “low polyreactivity”; under “QVQLVESGGGLVQAGGSLRLSCAASGIIFGQYAMGGYIQAPGKEREFVSAISRSGGSTNYADSVKGLFTISRDNAKNTVYLQMNSLKPEDTAVYYCNKRARHTGDFVWGHGYWGQGTQVTVSS”, “low polyreactivity”.
